The results in this text go back to PMC6261992, “Structural insight into D-xylose utilization by xylose reductase from Scheffersomyces stipitis” (Scientific Reports, 2018).

Substrate in data set [1]: NC(=O)C1=CN([C@@H]2O[C@H](COP(=O)(O)OP(=O)(O)OC[C@H]3O[C@@H](n4cnc5c(N)ncnc54)[C@H](O)[C@@H]3O)[C@@H](O)[C@H]2O)C=CC1
Put plainly: purified protein. It is filed as biochemical, Scheffersomyces stipitis. As to conditions: 150 mM NaCl, 100 mM D-xylose, 100 mM Tris-HCl pH 8.0, 303 K, 30.0 °C, varied: cofactor.

Substrate in data set [2]: NC(=O)C1=CN([C@@H]2O[C@H](COP(=O)(O)OP(=O)(O)OC[C@H]3O[C@@H](n4cnc5c(N)ncnc54)[C@H](OP(=O)(O)O)[C@@H]3O)[C@@H](O)[C@H]2O)C=CC1
Kind of data set: purified protein. It is filed as biochemical, Scheffersomyces stipitis. As to conditions: 150 mM NaCl, 100 mM D-xylose, 100 mM Tris-HCl pH 8.0, 303 K, crystal structure of the complex at 2.0 Å, 30.0 °C, varied: cofactor.

Data set [3] concerns the molecule itself. Kind of data set: SEC; analytical, Superdex increase 200 10/300 GL, 40 mM Tris-HCl pH 8.0, 0 mM NaCl; 0.5 mL at 1 mg/mL; (in 50 and 100 mM NaCl generally separated into monomers).

B1: D-xylose reductase from Scheffersomyces stipitis (enzyme, UniProt P31867 1-318, looked up)
chain: MPSIKLNSGYDMPAVGFGCWKVDVDTCSEQIYRAIKTGYRLFDGAEDYANEKLVGAGVKKAIDEGIVKREDLFLTSKLWNNYHHPDNVEKALNRTLSDLQVDYVDLFLIHFPVTFKFVPLEEKYPPGFYCGKGDNFDYEDVPILETWKALEKLVKAGKIRSIGVSNFPGALLLDLLRGATIKPSVLQVEHHPYLQQPRLIEFAQSRGIAVTAYSSFGPQSFVELNQGRALNTSPLFENETIKAIAAKHGKSPAQVLLRWSSQRGIAIIPKSNTVPRLLENKDVNSFDLDEQDFADIAKLDINLRFNDPWDWDKIPIFV
notes: D-xylose reductase (SsXR) of Scheffersomyces stipitis; cloned NdeI/XhoI into pProEX-HTa; The vector adds a 6x-His tag with an rTEV protease cleavage site at the N-terminus; also called SsXR; XR; source: E. coli BL21(DE3)-T1R, purified (Ni-NTA, gel filtration)
On to B1, for which, in data set [1], the Km was 0.136 ± 0.017 mM and the kcat was 2.39 ± 0.15 s⁻¹. Further, in data set [2], the Km was 0.0277 ± 0.0020 mM and the kcat was found to be 7.63 ± 0.19 s⁻¹. In addition, in data set [3], the “stoichiometry N” value turned out to be 2.
